Experimental data taken from the supplement of paper PMC10567573.

B1: MIA2 (parent)
chain: NSISSDKEATVPCTEILTEKKDTI

Variants of: B1
Assay: protein stability index of a GFP-peptide fusion (GPS, HEK-293T) (PSI 1-6); higher = more stable
Conditions: c terminus: a fixed tail appended
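Note: lentivirally expressed fusions sorted by FACS into six bins by GFP to DsRed ratio, PSI derived from sequencing read proportions per bin multiplied by bin number.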

Variant	protein stability index
NSISSDKEATVPCTVILTEKKDTI	4.66
NSISSDKEATVPCTWILTEKKDTI	4.13
NSISSDKEATVPCTQILTEKKDTI	5.32
NSISSDKEATVPCTPILTEKKDTI	5.16
NSISSDKEATVPCTTILTEKKDTI	5.46
NSISSDKEATVPCTRILTEKKDTI	4.9
NSISSDKEATVPCTSILTEKKDTI	5.34
NSISSDKEATVPCTYILTEKKDTI	4.68
NSISSDKEATVPCTNILTEKKDTI	5.23
NSISSDKEATVPCTEIATEKKDTI	5.8
NSISSDKEATVPCTEICTEKKDTI	5.51
NSISSDKEATVPCTEIMTEKKDTI	5.28
NSISSDKEATVPCTEIWTEKKDTI	4.52
NSISSDKEATVPCTEIFTEKKDTI	5.29
NSISSDKEATVPCTEIGTEKKDTI	5.64
NSISSDKEATVPCTEIVTEKKDTI	5.18
NSISSDKEATVPCTEINTEKKDTI	5.4
NSISSDKEATVPCTEIDTEKKDTI	5.46
NSISSDKEATVPCTEIRTEKKDTI	5.45
NSISSDKEATVPCTEISTEKKDTI	5.57
NSISSDKEATVPCTEITTEKKDTI	5.71
NSISSDKEATVPCTEIITEKKDTI	5.34
NSISSDKEATVPCTEIPTEKKDTI	5.62
NSISSDKEATVPCTEIQTEKKDTI	5.4

Variant	protein stability index
NSISSDKEATVPCTEIHTEKKDTI	5.21
NSISSDKEATVPCTEIKTEKKDTI	5.46
NSISSDKEATVPCTEIETEKKDTI	5.78
NSISSDKEATVPCTEIYTEKKDTI	5.37
NSISSDKEATVPCTEALTEKKDTI	5.53
NSISSDKEATVPCTESLTEKKDTI	5.41
NSISSDKEATVPCTEHLTEKKDTI	5.49
NSISSDKEATVPCTEGLTEKKDTI	5.11
NSISSDKEATVPCTELLTEKKDTI	5.51
NSISSDKEATVPCTEYLTEKKDTI	5.12
NSISSDKEATVPCTETLTEKKDTI	5.63
NSISSDKEATVPCTEELTEKKDTI	5.62
NSISSDKEATVPCTEQLTEKKDTI	5.65
NSISSDKEATVPCTEFLTEKKDTI	5.19
NSISSDKEATVPCTERLTEKKDTI	5.57
NSISSDKEATVPCTECLTEKKDTI	5.27
NSISSDKEATVPCTENLTEKKDTI	5.47
NSISSDKEATVPCTEWLTEKKDTI	5.26
NSISSDKEATVPCTEVLTEKKDTI	5.45
NSISSDKEATVPCTEPLTEKKDTI	5.52
NSISSDKEATVPCTEMLTEKKDTI	5.49
NSISSDKEATVPCTEDLTEKKDTI	5.81
NSISSDKEATVPCTEKLTEKKDTI	5.64
NSISSDKEATVPCTEILTWKKDTI	4.59

Variant	protein stability index
NSISSDKEATVPCTEILTHKKDTI	5.03
NSISSDKEATVPCTEILTRKKDTI	5.42
NSISSDKEATVPCTEILTIKKDTI	4.72
NSISSDKEATVPCTEILTDKKDTI	5.46
NSISSDKEATVPCTEILTAKKDTI	5.34
NSISSDKEATVPCTEILTLKKDTI	4.43
NSISSDKEATVPCTEILTGKKDTI	5.22
NSISSDKEATVPCTEILTYKKDTI	5.06
NSISSDKEATVPCTEILTCKKDTI	5.21
NSISSDKEATVPCTEILTKKKDTI	4.93
NSISSDKEATVPCTEILTVKKDTI	5.18
NSISSDKEATVPCTEILTFKKDTI	4.62
NSISSDKEATVPCTEILTPKKDTI	5.66
NSISSDKEATVPCTEILTTKKDTI	5.17
NSISSDKEATVPCTEILTNKKDTI	5.32
NSISSDKEATVPCTEILTSKKDTI	5.3
NSISSDKEATVPCTEILTMKKDTI	5.08
NSISSDKEATVPCTEILTQKKDTI	5.22
NSISSDKEATVPCTEILTEKKDTR	5.36
NSISSDKEATVPCTEILTEKKDTF	5.33
NSISSDKEATVPCTEILTEKKDTL	5.32
NSISSDKEATVPCTEILTEKKDTK	5.35
NSISSDKEATVPCTEILTEKKDTD	5.72
NSISSDKEATVPCTEILTEKKDTS	5.69

Variant	protein stability index
NSISSDKEATVPCTEILTEKKDTW	5.32
NSISSDKEATVPCTEILTEKKDTA	5.66
NSISSDKEATVPCTEILTEKKDTP	5.66
NSISSDKEATVPCTEILTEKKDTV	5.63
NSISSDKEATVPCTEILTEKKDTM	5.52
NSISSDKEATVPCTEILTEKKDTY	5.36
NSISSDKEATVPCTEILTEKKDTG	5.56
NSISSDKEATVPCTEILTEKKDTC	5.68
NSISSDKEATVPCTEILTEKKDTT	5.67
NSISSDKEATVPCTEILTEKKDTN	5.7
NSISSDKEATVPCTEILTEKKDTQ	5.61
NSISSDKEATVPCTEILTEKKDTH	5.45
NSISSDKEATVPCTEILTEKKDTE	5.81
NSISSDKEATVPCTEILTEKADTI	5.37
NSISSDKEATVPCTEILTEKIDTI	5.14
NSISSDKEATVPCTEILTEKTDTI	5.51
NSISSDKEATVPCTEILTEKVDTI	5.1
NSISSDKEATVPCTEILTEKFDTI	5.07
NSISSDKEATVPCTEILTEKRDTI	5.39
NSISSDKEATVPCTEILTEKHDTI	5.15
NSISSDKEATVPCTEILTEKDDTI	5.72
NSISSDKEATVPCTEILTEKYDTI	4.84
